This note sets out measurements from patent US20220267396A1.

Several values for one entry are separate records, joined by “and”; a condition that tells them apart may be missing. Identical values can stand only once.

Experiment [1] has as its target anti-DNP mouse IgE antibody (Sigma, USA). Kind of experiment: BLI (Octet K2), fusion protein on sensor, anti-DNP mouse IgE in solution.
For experiment [2] the target is unchanged. Kind of experiment: BLI (Octet K2), average of three runs, fusion protein on sensor, anti-DNP mouse IgE in solution.
Experiment [3] shares this target. Kind of experiment: BLI (Octet K2), fusion protein amine-coupled to AR2G sensor, anti-DNP mouse IgE in solution 50 pM-3.125 nM. (Biolayer interferometry detects binding as a change in optical thickness at a sensor tip.)
The target in experiment [4] is T1, IL-10 receptor 1 (IL-10R1), IL-10R His-tag protein.
T1 sequence (Q13651 22-235, species assumed, looked up): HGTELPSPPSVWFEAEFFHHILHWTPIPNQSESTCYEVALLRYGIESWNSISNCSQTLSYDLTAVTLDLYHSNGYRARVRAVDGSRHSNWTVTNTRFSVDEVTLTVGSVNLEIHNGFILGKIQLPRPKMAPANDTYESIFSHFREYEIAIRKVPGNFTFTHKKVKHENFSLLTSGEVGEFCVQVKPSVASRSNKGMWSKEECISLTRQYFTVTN
Kind of experiment: BLI (Octet K2), IL-10R His-tag on sensor.

Experiment [5] has the same target. Kind of experiment: BLI (Octet K2), IL-10R His-tag amine-coupled to AR2G sensor, fusion protein in solution 0-1,000 nM.

One may read the kon as the rate constant with which the complex forms. A lower kon goes with slow association. As usually defined, the Kd is the free concentration of one partner at which half of the binding sites on the other are occupied at equilibrium, for simple one-to-one binding. With “FcεRIα-Fc fusion protein not containing IL-10Vm (control) (from UniProt P12319 26-205)”, the on-rate constant (kon) in experiment [1] is 123000 M⁻¹ s⁻¹ and 149000 M⁻¹ s⁻¹ and 166000 M⁻¹ s⁻¹. The Kd was 0.594 nM in experiment [2]; 0.364 nM and 0.478 nM and 0.94 nM in experiment [3].

B1: IL-10M-1 (NTIG-linker 1-IL-10Vm), monomeric IL-10 variant fusion protein of Example 1 (Fc fusion)
chain: SHTQPLGVFLFPPKPKDQLMISRTPEVTCVVVDVSQEDPEVQFNWYVDGVEVHNAKTKPREEQFNSTYRVVSVLTVLHQDWLNGKEYKCKVSNKGLPSSIEKTISKAKGQPREPQVYTLPPSQEEMTKNQVSLTCLVKGFYPSDIAVEWESNGQPENNYKTTPPVLDSDGSFFLYSRLTVDKSRWQEGNVFSCSVLHEALHNHYTQKSLSLSLGAAGSGGGGGSGGGGSGGGGSSPGQGTQSENSCTHFPGNLPNMLRDLRDAFSRVKTFFQMKDQLDNLLLKESLLEDFKGYLGCQALSEMIQFYLEEVMPQAENQDPDIKAHVNSLGENLKTLRLRLRRCHRFLPCENGGSGGSGGSKSKAVEQVKNAFNKLQEKGIYKAMSEFDIFINYIEAYMTMKIRN
In general, koff refers to the first-order rate constant of dissociation. A low value points to slow dissociation. Take B1: the fold of KD against Comparative Example 1 (NTIG-IL-10V) in experiment [4] came out at 3 fold. In experiment [5], this molecule yielded a Kd of 29.2 nM, an off-rate (koff) of 0.0006 s⁻¹ and a kon of 20600 M⁻¹ s⁻¹.

B2: IL-10M (NTIG-linker 1-IL-10V), dimeric IL-10 variant fusion protein of Comparative Example 1 (Fc fusion, not shown: a dimerising Fc or GST)
chain: AAGSGGGGGSGGGGSGGGGSSPGQGTQSENSCTHFPGNLPNMLRDLRDAFSRVKTFFQMKDQLDNLLLKESLLEDFKGYLGCQALSEMIQFYLEEVMPQAENQDPDAKAHVNSLGENLKTLRLRLRRCHRFLPCENKSKAVEQVKNAFNKLQEKGIYKAMSEFDIFINYIEAYMTMKIRN
With B2, in experiment [5], the Kd came out at 11.1 nM, the off-rate constant (koff) worked out at 0.0008 s⁻¹ and the on-rate constant (kon) worked out at 71100 M⁻¹ s⁻¹.
